Experimental data taken from patent US20250375497A1 (UNIVERSITY OF VIRGINIA PATENT FOUNDATION, published 2025).

Target: T1, Myc-tagged barley CslF6 (barley (Hordeum vulgare subsp. vulgare))
T1 construct: also called Myc-tagged CslF6 species; not shown: Myc tag
T1 chain: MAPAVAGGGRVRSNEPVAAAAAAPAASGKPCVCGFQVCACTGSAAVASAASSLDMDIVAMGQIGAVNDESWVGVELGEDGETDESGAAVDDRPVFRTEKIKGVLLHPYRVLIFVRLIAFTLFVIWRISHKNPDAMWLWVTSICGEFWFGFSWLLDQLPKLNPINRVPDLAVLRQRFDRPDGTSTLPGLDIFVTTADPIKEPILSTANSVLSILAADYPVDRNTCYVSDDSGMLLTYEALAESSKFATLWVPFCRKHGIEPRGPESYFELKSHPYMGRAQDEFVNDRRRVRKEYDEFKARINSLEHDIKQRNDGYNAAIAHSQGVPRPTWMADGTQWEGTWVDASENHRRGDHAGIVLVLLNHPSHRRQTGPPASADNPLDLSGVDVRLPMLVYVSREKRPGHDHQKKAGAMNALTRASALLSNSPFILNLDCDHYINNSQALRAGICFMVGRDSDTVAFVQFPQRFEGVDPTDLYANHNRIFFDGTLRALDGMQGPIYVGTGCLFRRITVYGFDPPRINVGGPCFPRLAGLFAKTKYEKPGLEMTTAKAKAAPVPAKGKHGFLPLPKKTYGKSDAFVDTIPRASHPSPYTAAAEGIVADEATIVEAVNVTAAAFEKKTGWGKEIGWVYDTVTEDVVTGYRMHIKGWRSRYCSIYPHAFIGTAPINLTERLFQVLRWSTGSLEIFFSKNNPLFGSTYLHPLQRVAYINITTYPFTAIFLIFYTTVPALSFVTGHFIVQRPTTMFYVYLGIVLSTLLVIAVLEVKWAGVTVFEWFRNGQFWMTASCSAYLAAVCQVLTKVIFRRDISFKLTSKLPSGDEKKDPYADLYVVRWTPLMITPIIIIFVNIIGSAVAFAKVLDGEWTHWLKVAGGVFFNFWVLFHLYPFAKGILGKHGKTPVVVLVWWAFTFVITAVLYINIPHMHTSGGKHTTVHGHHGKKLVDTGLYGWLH
Assay: co-purification of His- and Myc-tagged CslF6

B1: barley (Hordeum vulgare) cellulose synthase-like CslF6 with N-terminal 12xHis tag (enzyme)
chain: MAPAVAGGGRVRSNEPVAAAAAAPAASGKPCVCGFQVCACTGSAAVASAASSLDMDIVAMGQIGAVNDESWVGVELGEDGETDESGAAVDDRPVFRTEKIKGVLLHPYRVLIFVRLIAFTLFVIWRISHKNPDAMWLWVTSICGEFWFGFSWLLDQLPKLNPINRVPDLAVLRQRFDRPDGTSTLPGLDIFVTTADPIKEPILSTANSVLSILAADYPVDRNTCYVSDDSGMLLTYEALAESSKFATLWVPFCRKHGIEPRGPESYFELKSHPYMGRAQDEFVNDRRRVRKEYDEFKARINSLEHDIKQRNDGYNAAIAHSQGVPRPTWMADGTQWEGTWVDASENHRRGDHAGIVLVLLNHPSHRRQTGPPASADNPLDLSGVDVRLPMLVYVSREKRPGHDHQKKAGAMNALTRASALLSNSPFILNLDCDHYINNSQALRAGICFMVGRDSDTVAFVQFPQRFEGVDPTDLYANHNRIFFDGTLRALDGMQGPIYVGTGCLFRRITVYGFDPPRINVGGPCFPRLAGLFAKTKYEKPGLEMTTAKAKAAPVPAKGKHGFLPLPKKTYGKSDAFVDTIPRASHPSPYTAAAEGIVADEATIVEAVNVTAAAFEKKTGWGKEIGWVYDTVTEDVVTGYRMHIKGWRSRYCSIYPHAFIGTAPINLTERLFQVLRWSTGSLEIFFSKNNPLFGSTYLHPLQRVAYINITTYPFTAIFLIFYTTVPALSFVTGHFIVQRPTTMFYVYLGIVLSTLLVIAVLEVKWAGVTVFEWFRNGQFWMTASCSAYLAAVCQVLTKVIFRRDISFKLTSKLPSGDEKKDPYADLYVVRWTPLMITPIIIIFVNIIGSAVAFAKVLDGEWTHWLKVAGGVFFNFWVLFHLYPFAKGILGKHGKTPVVVLVWWAFTFVITAVLYINIPHMHTSGGKHTTVHGHHGKKLVDTGLYGWLH
notes: Expressed in Sf9 insect cells and purified in detergent (LMNG/CHS, then GDN); also called HvCslF6; His-tagged CslF6; not shown: N-terminal 12xHis tag
binding result: no binding
